According to PMC7254967:

Legend:
Assay in all cases: crystal structure
[1] = molecular target: R7, fused 4-oxalocrotonate tautomerase from Burkholderia sp. RPE67 (Burkholderia sp. RPE67)
[2] = molecular target: Q0, fused 4-oxalocrotonate tautomerase from Bordetella trematum (Bordetella trematum)
[3] = molecular target: F6, fused 4-oxalocrotonate tautomerase from Caballeronia arationis (Caballeronia arationis)
[4] = molecular target: W0, fused 4-oxalocrotonate tautomerase from Advenella mimigardefordensis DPN7 (Advenella mimigardefordensis DPN7)

Substance: R7, fused 4-oxalocrotonate tautomerase from Burkholderia sp. RPE67 (enzyme)
- stoichiometry N [1]: 3

Substance: Q0, fused 4-oxalocrotonate tautomerase from Bordetella trematum (enzyme)
- stoichiometry N [2]: 3

Substance: F6, fused 4-oxalocrotonate tautomerase from Caballeronia arationis (enzyme)
- stoichiometry N [3]: 3

Substance: W0, fused 4-oxalocrotonate tautomerase from Advenella mimigardefordensis DPN7 (enzyme)
- stoichiometry N [4]: 3
